PMC8760323, “Single-chain tandem macrocyclic peptides as a scaffold for growth factor and cytokine mimetics” (Communications Biology, 2022)
Positions of bridges follow the written chain, without caps; N, C: chain ends. No end group written: not given here.

T1: human EPOR ectodomain-Fc (Homo sapiens, UniProt P19235)
T1 construct: human EPOR ectodomain-Fc; purchased R&D Systems
T1 sequence (P19235 25-250 limits assumed): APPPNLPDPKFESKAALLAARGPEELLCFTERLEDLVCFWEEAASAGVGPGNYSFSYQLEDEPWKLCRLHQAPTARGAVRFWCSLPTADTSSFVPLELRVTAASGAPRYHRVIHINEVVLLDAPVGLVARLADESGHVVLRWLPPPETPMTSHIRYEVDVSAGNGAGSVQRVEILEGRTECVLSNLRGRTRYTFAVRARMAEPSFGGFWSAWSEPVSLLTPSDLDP

T2: EPOR (Homo sapiens, UniProt P19235)
T2 sequence (P19235 25-508): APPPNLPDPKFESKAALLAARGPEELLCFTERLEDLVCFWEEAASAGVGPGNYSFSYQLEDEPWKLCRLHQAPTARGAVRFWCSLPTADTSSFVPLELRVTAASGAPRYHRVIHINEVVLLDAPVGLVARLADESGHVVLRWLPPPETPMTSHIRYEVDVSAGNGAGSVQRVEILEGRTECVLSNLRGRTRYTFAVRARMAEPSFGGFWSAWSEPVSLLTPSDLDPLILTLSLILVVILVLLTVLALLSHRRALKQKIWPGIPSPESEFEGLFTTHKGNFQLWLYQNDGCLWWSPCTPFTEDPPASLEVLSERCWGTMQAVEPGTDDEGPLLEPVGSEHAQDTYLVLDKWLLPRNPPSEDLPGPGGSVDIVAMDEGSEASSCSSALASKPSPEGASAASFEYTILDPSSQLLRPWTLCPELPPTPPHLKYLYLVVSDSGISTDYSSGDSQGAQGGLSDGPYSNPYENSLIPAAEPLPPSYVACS

T3: Recombinant human EPOR ectodomain-Fc (human, UniProt P19235 25-250)
T3 construct: erythropoietin receptor (EPOR), human, ectodomain; Captured on the chip with a human antibody capture kit, by its Fc; also called EPOR-Fc; rhEPOR ectodomain-Fc; source: bought: R&D Systems
T3 sequence (looked up): T1 sequence (P19235 25-250 limits assumed)

B1: EMP-PA8 (designed binder)
chain: AETGGLYACHMGPMTWVCQPLRGAAPAAPAPGGLYACHMGPMTWVCQPLRG
modifications: disulfide 9-18, 37-46 (inferred)
notes: Expressed with the CspB signal peptide of C. glutamicum ATCC13869; also called EMP-PA8 (STaMPtide); EPO mimetic STaMPtide; source: C. glutamicum YPS010, secreted into the supernatant, purified (RP-HPLC)
B2: EMP-PA22 (designed binder)
chain: AETGGLYACHMGPMTWVCQPLRGAAPAAPAPAAPAAPAPAAPAAPGGLYACHMGPMTWVCQPLRG
modifications: disulfide 9-18, 51-60 (inferred)
notes: Expressed with the CspB signal peptide of C. glutamicum ATCC13869; also called EMP-PA22 (STaMPtide); EPO mimetic STaMPtide; source: C. glutamicum YPS010, secreted into the supernatant, purified (RP-HPLC)
B3: EMP35 (peptide)
peptide: GGLYACHMGPMTWVCQPLRG
modifications: disulfide 6-15
notes: also called EMP35 (Monomer); monomeric EMP35; source: synthetic peptide (GenScript Japan)
B4: aMD4dY (peptide)
peptide: CRQFNRRTHEVWNLDC-OH
modifications: disulfide 1-16; N-terminus assumed
SMILES: CC(C)C[C@@H]1NC(=O)[C@H](CC(N)=O)NC(=O)[C@H](Cc2c[nH]c3ccccc23)NC(=O)[C@H](C(C)C)NC(=O)[C@H](CCC(=O)O)NC(=O)[C@H](Cc2c[nH]cn2)NC(=O)[C@H]([C@@H](C)O)NC(=O)[C@H](CCCNC(=N)N)NC(=O)[C@H](CCCNC(=N)N)NC(=O)[C@H](CC(N)=O)NC(=O)[C@H](Cc2ccccc2)NC(=O)[C@H](CCC(N)=O)NC(=O)[C@H](CCCNC(=N)N)NC(=O)[C@@H](N)CSSC[C@@H](C(=O)O)NC(=O)[C@H](CC(=O)O)NC1=O
notes: also called aMD4dY (Monomer); monomeric aMD4dY; source: synthetic peptide (GenScript Japan)
B5: EMP-PA22: EPO mimetic STaMPtide, EMP35 dimerized with 22-amino-acid PA linker (peptide)
chain: B2 chain
modifications: disulfide 9-18, 51-60 (inferred)

Legend:
human EPOR ectodomain-Fc = target: T1, human EPOR ectodomain-Fc; assay: SPR analysis, human EPOR ectodomain; assay type: binding; conditions: for binding against EPOR: exact dissociation constants not determinable, too slow dissociation
Method: (§1) Binding constants of the STaMPtides and monomeric macrocyclic peptides to their corresponding receptor ectodomains were determined by SPR analysis using Biacore T200 (Cytiva). HBS-EP + buffer (Cytiva) containing 0.1% dimethyl sulfoxide (DMSO; Sigma-Aldrich, St. Louis, MO, USA) was used as the running buffer. As ligands, recombinant human Met ectodomain-Fc and human EPOR ectodomain-Fc were immobilized to around 1000 response units on CM5 sensor chips using a human antibody capture kit (Cytiva). STaMPtides and monomeric macrocyclic peptides were injected in five concentrations at a flow rate of 30 μL/min using a single-cycle kinetics method. Binding constants were quantified by analysis of the 1:1 binding model.

EPOR = target: T2, EPOR; assay: EPOR-JAK2 functional assay (PathHunter); assay type: cell-based; conditions: for EPOR activation by serially diluted supernatants: decellularized supernatant; for EC50: purified, 3 h at room temperature, read-out: half-maximal effective concentration (EC50)
Method: Agonistic activity against EPOR was assessed using the PathHunter® eXpress EpoR-JAK2 Functional Assay Kit (DiscoverX) according to the manufacturer’s instructions. Briefly, cells were seeded on a 96-well cell culture plate and incubated overnight in 5% CO2 at 37 °C. […] The cells were lysed with a substrate reagent, and chemiluminescence was detected using a Nivo plate reader (PerkinElmer).

[1] = target: T4, recombinant human Met ectodomain-Fc (Homo sapiens, UniProt P08581); assay: SPR analysis, human Met ectodomain; assay type: binding
T4 construct: recombinant human Met ectodomain-Fc; purchased R&D Systems
T4 sequence (P08581 25-932 limits assumed): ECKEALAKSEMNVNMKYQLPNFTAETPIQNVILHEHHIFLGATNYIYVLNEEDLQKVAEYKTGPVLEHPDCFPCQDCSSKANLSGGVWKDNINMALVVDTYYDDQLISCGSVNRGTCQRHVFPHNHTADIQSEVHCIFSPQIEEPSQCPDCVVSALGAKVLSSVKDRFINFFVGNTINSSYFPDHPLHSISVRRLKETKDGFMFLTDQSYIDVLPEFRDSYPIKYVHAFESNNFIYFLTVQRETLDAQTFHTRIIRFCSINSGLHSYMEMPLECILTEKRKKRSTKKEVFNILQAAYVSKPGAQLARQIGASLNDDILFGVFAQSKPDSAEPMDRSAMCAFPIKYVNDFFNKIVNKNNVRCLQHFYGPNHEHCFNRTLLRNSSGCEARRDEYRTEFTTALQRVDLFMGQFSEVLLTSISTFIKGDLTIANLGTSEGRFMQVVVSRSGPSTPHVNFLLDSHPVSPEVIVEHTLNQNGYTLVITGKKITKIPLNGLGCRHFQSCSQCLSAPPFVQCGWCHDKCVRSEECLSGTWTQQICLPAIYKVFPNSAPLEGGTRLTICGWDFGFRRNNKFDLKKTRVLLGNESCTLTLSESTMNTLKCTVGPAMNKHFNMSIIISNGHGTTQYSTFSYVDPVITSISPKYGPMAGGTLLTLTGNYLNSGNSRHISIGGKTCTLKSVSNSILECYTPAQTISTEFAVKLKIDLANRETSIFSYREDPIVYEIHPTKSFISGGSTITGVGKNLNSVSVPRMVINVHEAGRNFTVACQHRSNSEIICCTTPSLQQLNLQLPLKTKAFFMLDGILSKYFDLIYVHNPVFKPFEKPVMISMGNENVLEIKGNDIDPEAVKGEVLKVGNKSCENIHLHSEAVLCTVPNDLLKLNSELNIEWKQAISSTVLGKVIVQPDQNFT
Method: as §1

Met = assay: Cell-based phospho-Met ELISA (HuCCT1 cells); design: species or system human; conditions: phospho-Met ELISA and Erk signaling reporter assay
Method: The phosphorylation level of Met was evaluated according to a previously reported method[6],[32], with slight modifications. In brief, HuCCT-1 cells at a density of 10,000 cells/well were seeded on 96-well cell culture plates and incubated overnight in 5% CO2 at 37 °C. The cells were stimulated by rhHGF, purified HGF mimetic STaMPtides, and monomeric aMD4dY for 10 min in a 5% CO2 incubator at 37 °C. Next, cells were fixed using 4% paraformaldehyde in phosphate-buffered saline (PBS) for 20 min. Cells were washed three times with PBS and blocked with 1% BSA and 0.02% Triton X-100 in PBS for 30 min at room temperature. Cells were incubated with 1:1000 diluted phospho-Met (Tyr1234/1235) (D26) XP Rabbit mAb (Cell Signaling Technology) supplemented with 1% BSA in PBS at 4 °C overnight. After washing three times with PBS, the cells were incubated with 1:1000 diluted […] HRP-linked IgG antibody (Cell Signaling Technology) supplemented with 1% BSA in PBS at room temperature for 3 h. Cells were washed four times with PBS and incubated with 100 μL TMB substrate for 30 min. The reaction was stopped with an equal volume of 0.2 N sulfuric acid, and absorbance was quantified at 450 nm by the Molecular Imager ChemiDoc XRS System (Bio-Rad).

[2] = target: T3, Recombinant human EPOR ectodomain-Fc; assay: SPR; Biacore T200; receptor ectodomain-Fc immobilised to around 1000 RU on CM5 chip by human antibody capture kit; peptides injected in five concentrations at 30 uL/min, single-cycle kinetics; HBS-EP+ buffer with 0.1% DMSO; 1:1 binding model; three runs (N 1-3) and their average
[3] = target: T3, Recombinant human EPOR ectodomain-Fc; assay: SPR; Biacore T200; receptor ectodomain-Fc immobilised to around 1000 RU on CM5 chips with a human antibody capture kit; peptides injected in five concentrations at 30 uL/min, single-cycle kinetics; HBS-EP+ buffer with 0.1% DMSO; 1:1 binding model; mean and SD of triplicate experiments; conditions: both partners purified
[4] = target: T5, Recombinant human Met ectodomain-Fc (human, UniProt P08581 25-932); assay: as above; conditions: both partners purified
T5 construct: Met, receptor of hepatocyte growth factor, human, ectodomain; Captured on the chip with a human antibody capture kit, by its Fc; also called Met-Fc; source: bought: R&D Systems
T5 sequence (P08581 25-932): as the sequence (P08581 25-932 limits assumed) above

hPBMCs = assay: Colony-forming assay; assay type: cell-based, human; conditions: at doses of 33 ng/mL or higher, 13 days
Method: Next, 1.1 mL of the mixture was seeded in a 6-well cell culture plate and cultured for 13 days in 5% CO2 at 37 °C. At day 13, colony numbers were counted, and images were taken by inverted microscopy and BZ-X fluorescence microscopy.

Row | Molecule | kd (human EPOR ectodomain-Fc; Table S1, Average of N 1-3) [M⁻¹ s⁻¹] | KD (human EPOR ectodomain-Fc; Table S1, N 1) [nM] | kd (human EPOR ectodomain-Fc; Table S1, N 1) [M⁻¹ s⁻¹] | KD (human EPOR ectodomain-Fc; Table S1, N 2) [nM] | kd (human EPOR ectodomain-Fc; Table S1, N 2) [M⁻¹ s⁻¹] | KD (human EPOR ectodomain-Fc; Table S1, N 3) [nM] | kd (human EPOR ectodomain-Fc; Table S1, N 3) [M⁻¹ s⁻¹] | binding against EPOR (human EPOR ectodomain-Fc) | Kd [2] [nM] | Kd [3] [nM] | further results
1 | CSCC[C@@H]1NC(=O)[C@H](Cc2c[nH]cn2)NC(=O)[C@@H](NC(=O)[C@H](C)NC(=O)[C@H](Cc2ccc(O)cc2)NC(=O)[C@H](CC(C)C)NC(=O)CNC(=O)CN)CSSC[C@@H](C(=O)N[C@@H](CCC(N)=O)C(=O)N2CCC[C@H]2C(=O)N[C@@H](CC(C)C)C(=O)N[C@@H](CCCNC(=N)N)C(=O)NCC(=O)O)NC(=O)[C@H](C(C)C)NC(=O)[C@H](Cc2c[nH]c3ccccc23)NC(=O)[C@H]([C@@H](C)O)NC(=O)[C@H](CCSC)NC(=O)[C@@H]2CCCN2C(=O)CNC1=O [EMP35, reference compound] | 1e-05 | 0.089 | 1e-05 | 0.15 | 1e-05 | 1.3 | 1e-05 | strong binding potency | – | – | agonist potency weaker than STaMPtides (EPOR): ~ 1000 times
2 | aMD4dY: modified macrocyclic Met-binding peptide: aMD4 without N-terminal D-Tyr, disulfide instead of thioether linkage (CRQFNRRTHEVWNLDC-OH; disulfide 1-16; N-terminus assumed; SMILES CC(C)C[C@@H]1NC(=O)[C@H](CC(N)=O)NC(=O)[C@H](Cc2c[nH]c3ccccc23)NC(=O)[C@H](C(C)C)NC(=O)[C@H](CCC(=O)O)NC(=O)[C@H](Cc2c[nH]cn2)NC(=O)[C@H]([C@@H](C)O)NC(=O)[C@H](CCCNC(=N)N)NC(=O)[C@H](CCCNC(=N)N)NC(=O)[C@H](CC(N)=O)NC(=O)[C@H](Cc2ccccc2)NC(=O)[C@H](CCC(N)=O)NC(=O)[C@H](CCCNC(=N)N)NC(=O)[C@@H](N)CSSC[C@@H](C(=O)O)NC(=O)[C@H](CC(=O)O)NC1=O) | – | – | – | – | – | – | – | – | – | – | binding to human Met [1]: retained its binding capacity to human Met; kd ([1]; Table S1, Average of N 1-3): 0.045 M⁻¹ s⁻¹; KD ([1]; Table S1, N 1): 39 nM; kd ([1]; Table S1, N 1): 0.04 M⁻¹ s⁻¹; KD ([1]; Table S1, N 2): 53 nM; kd ([1]; Table S1, N 2): 0.05 M⁻¹ s⁻¹; KD ([1]; Table S1, N 3): 44 nM; kd ([1]; Table S1, N 3): 0.044 M⁻¹ s⁻¹; Met phosphorylation and Erk-SRE signaling activation (Met): did not activate Met
3 | AETGGLYACHMGPMTWVCQPLRGAAPAAPAPGGLYACHMGPMTWVCQPLRG (disulfide 9-18, 37-46) [EMP-PA8] | 1e-05 | 0.034 | 1e-05 | 0.026 | 1e-05 | 0.03 | 1e-05 | strong binding potency | – | – | association rate higher than that of EMP35 (human EPOR ectodomain-Fc): 5–10 times; Kd (human EPOR ectodomain-Fc; Table S1, Average of N 1-3): 0.03 nM; EPOR activation by serially diluted supernatants (EPOR): activated EPOR, even at high dilutions; EC50 (EPOR): 0.022 nM
4 | B1 | – | – | – | – | – | – | – | – | < 0.0257 | < 0.03 | –
5 | B2 | – | – | – | – | – | – | – | – | < 0.0104 | < 0.013 | –
6 | B3 | – | – | – | – | – | – | – | – | < 0.0887 | < 0.5 | –
7 | B4 | – | – | – | – | – | – | – | – | – | – | Kd [4]: 45 nM
8 | B5 | 1e-05 | 0.014 | 1e-05 | 0.015 | 1e-05 | 0.01 | 1e-05 | strong binding potency | – | – | association rate higher than that of EMP35 (human EPOR ectodomain-Fc): 5–10 times; EPOR activation by serially diluted supernatants (EPOR): activated EPOR, even at high dilutions; EC50 (EPOR): 0.22 nM; erythroid colony formation efficiency (hPBMCs): equivalent to or higher than that of 10 ng/mL of rhEPO
